Reference: patent publication US20050182242A1, “Global analysis of protein activities using proteome chips” (priority 2001, published 2005)

B1: MIS1: yeast GST-HisX6 fusion protein on proteome chip (protein, UniProt P09440 35-975, looked up)
C-1-tetrahydrofolate …: YHILSGRKLAQSIREKANDEIQAIKLKHPNFKPTLKIIQVGARPDSSTYVRMKLKASKDSNVDCIIEKLPAEITEVELLKKISDINDDDSIHGLLIQLPLPRHLDETTITNAVDFKKDVDGFHRYNAGELAKKGGKPYFIPCTPYGCMKLLEEAHVKLDGKNAVVLGRSSIVGNPIASLLKNANATVTVCHSHTRNIAEVVSQADIVIAACGIPQYVKSDWIKEGAVVIDVGINYVPDISKKSGQKLVGDVDFDSVKEKTSYITPVPGGVGPMTVAMLVSNVLLAAKRQFVESEKLPVIKPLPLHLESPVPSDIDISRAQSPKHIKQVAEELGIHSHELELYGHYKAKISPNIFKRLESRENGKYVLVAGITPTPLGEGKSTTTMGLVQALSAHLGKPSIANVRQPSLGPTLGVKGGAAGGGYAQVIPMDEFNLHLTGDIHAISAANNLLAAAIDTRMFHEATQKNDSTFYKRLVPRKKGIRKFTPSMQRRLKRLDIEKEDPDALTPEEVKRFARLNINPDTITIRRVVDINDRMLRQITIGEAATEKGFTRTTGFDITVASELMAILALSKSLHEMKERIGRMVIGADYDNKPVTVEDIGCTGALTALLRDAIKPNLMQTLEGTPVMVHAGPFANISIGASSVIADLMALKLVGSEKNPLNDKNIHEPGYVVTEAGFDFAMGGERFFDIKCRSSGLVPDAVVLVATVRALKSHGGAPNVKPGQSLPKEYTEENIDFVAKGVSNLVKQIENIKTFGIPVVVAINRFETDSQAEIEVIKKAALNAGASHAVTSNHWMEGGKGAVELAHAVVDATKEPKNFNFLYDVNSSIEDKLTSIVQKMYGGAKIEVSPEAQKKIDTYKKQGFGNLPICIAKTQYSLSHDPSLKGVPRGFTFPIRDVRASIGAGYLYALAAEIQTIPGLSTYAGYMAVEVDDDGEIEGLF
modifications: GST-His6 fusion tag
notes: yeast GST-HisX6 fusion protein on proteome chip
B2: HEM14: yeast GST-HisX6 fusion protein on proteome chip (protein, UniProt P40012 1-539, looked up)
Protoporphyrinogen oxidase: MLLPLTKLKPRAKVAVVGGGVSGLCFTYFLSKLRPDVEITLFESQNRTGGWIYSCNTRDMSGNPIMLEKGPRTLRGVSDGTVLIMDTLKDLGKEAVIQSIDKGCIADKKFLLDPSDKLVQVPNSISTTVKFLLNPLGKGLITGMMGEWFRKKSPHPGQDESVESICDRRFGNNYISNNMISALLRGIYGDDVSLLSAKRTFKKIYYNELKHGSNTQAMIDNMRGKSRSKKTENLHQSLTGCLNDYSNAFGKDRSKLLDLSNTLKKYPMLGLAGGLETFPKIVRNALNEFKNVKIVTGNPVTQIMKRPANETTIGLKAKSGDQYETFDHLRLTITPPKIAKLLPKDQNSLSKLLDEIQSNTIILVNYYLPNKDVIDADLQGFGYLVPKSNKNPGKLLGVIFDSVIERNFKPLFDKLSTNPNALNKYTKVTAMIGGCMLNEHGVPVVPSREVTINAVKDALNNHLGISNKDLEAGQWEFTIADRCLPRFHVGYDAWQERAERKLQESYGQTVSVGGMGFSRSPGVPDVIVDGFNDALQLSK
modifications: GST-HisX6 tag
notes: as for B1
B3: GAD1: yeast GST-HisX6 fusion protein on proteome chip (protein, UniProt Q04792 1-585, looked up)
Glutamate decarboxylase: MLHRHGSKQKNFENIAGKVVHDLAGLQLLSNDVQKSAVQSGHQGSNNMRDTSSQGMANKYSVPKKGLPADLSYQLIHNELTLDGNPHLNLASFVNTFTTDQARKLIDENLTKNLADNDEYPQLIELTQRCISMLAQLWHANPDEEPIGCATTGSSEAIMLGGLAMKKRWEHRMKNAGKDASKPNIIMSSACQVALEKFTRYFEVECRLVPVSHRSHHMLDPESLWDYVDENTIGCFVILGTTYTGHLENVEKVADVLSQIEAKHPDWSNTDIPIHADGASGGFIIPFGFEKEHMKAYGMERWGFNHPRVVSMNTSGHKFGLTTPGLGWVLWRDESLLADELRFKLKYLGGVEETFGLNFSRPGFQVVHQYFNFVSLGHSGYRTQFQNSLFVARAFSFELLNSSKLPGCFEIVSSIHESIENDSAPKSVKDYWEHPQAYKPGVPLVAFKLSKKFHEEYPEVPQAILSSLLRGRGWIIPNYPLPKATDGSDEKEVLRVVFRSEMKLDLAQLLIVDIESILTKLIHSYEKVCHHIELASEQTPERKSSFIYEMLLALASPQDDIPTPDEIEKKNKLKETTTRNYRGTC
modifications: GST-His6 tag
notes: as for B1
B4: KCS1: yeast GST-HisX6 fusion protein on proteome chip (protein, UniProt Q12494 1-1050, looked up)
Inositol hexakisphosphate …: MDTSHEIHDKIPDTLREQQQHLRQKESEGCITTLKDLNVPETKKLSSVLHGRKASTYLRIFRDDECLADNNNGVDSNNGGSVTCADKITRSEATPKSVPEGLQVSEKKNNPDTLSSSLSSFILSNHEEPAIKPNKHVAHRNNITETGQGSGEDIAKQQSHQPQVLHHQTSLKPIQNVDEGCISPKSTYQESLHGISEDLTLKPVSSATYYPHKSKADSGYEEKDKMENDIDTIQPATINCASGIATLPSSYNRHTFKVKTYSTLSQSLRQENVNNRSNEKKPQQFVPHSESIKEKPNTFEQDKEGEQADEEEDEGDNEHREYPLAVELKPFTNRVGGHTAIFRFSKRAVCKALVNRENRWYENIELCHKELLQFMPRYIGVLNVRQHFQSKDDFLSDLDQENNGKNDTSNENKDIEVNHNNNDDIALNTEPTGTPLTHIHSFPLEHSSRQVLEKEHPEIESVHPHVKRSLSSSNQPSLLPEVVLNDNRHIIPESLWYKYSDSPNSAPNDSYFSSSSSHNSCSFGERGNTNKLKRRDSGSTMINTELKNLVIREVFAPKCFRRKRNSNTTTMGNHNARLGSSPSFLTQKSRASSHDASNTSMKTLGDSSSQASLQMDDSKVNPNLQDPFLKKSLHEKISNALDGSHSVMDLKQFHKNEQIKHKNSFCNSLSPILTATNSRDDGEFATSPNYISNAQDGVFDMDEDTGNETINMDNHGCHLDSGKNMIIKSLAYNVSNDYSHHDIESITFEETSHTIVSKFILLEDLTRNMNKPCALDLKMGTRQYGVDAKRAKQLSQRAKCLKTTSRRLGVRICGLKVWNKDYYITRDKYFGRRVKVGWQFARVLARFLYDGKTIESLIRQIPRLIKQLDTLYSEIFNLKGYRLYGASLLLMYDGDANKSNSKRKKAANVKVNLIDFARCVTKEDAMECMDKFRIPPKSPNIEDKGFLRGVKSLRFYLLLIWNYLTSDMPLIFDEVEMNDMISEEADSNSFTSATGSKINFNSKWDWLDEFDKEDEEMYNDPNSKLRQKWRKYELIFDAEPRYNDDAQVSD
modifications: GST-HisX6 tag
notes: as for B1

Tests used:
Conditions in all cases: liposome binding signal on yeast proteome chip, Cy3-streptavidin detection
PI(3)P liposomes = assay: Yeast proteome chip probed with PI(3)P liposomes
Source text: To identify PI-binding proteins in yeast, liposomes were used as probes because the liposome provides the most relevant physiological condition to assay the interactors. Six types of liposomes were used. Each contains phosphatidylcholine (“PC”) with 1% (w/w) N-(biotinoyl)-1,2-dihexadecanoyl-sn-glycero-3-phosphoethanolamine, triethylammonium salt (biotin DHPE). The biotinylated lipid serves as a label that can be detected by Cy3-streptavidin (21). In addition to PC, the five other liposomes contain either 5% (w/w) PI(3)P, PI(4)P, PI(3,4)P2, PI(4,5)P2, or PI(3,4,5)P3 (FIG. 3A).
The protein-liposome interaction was assayed as follows. Appropriate amounts of each lipid in chloroform were mixed and dried under nitrogen. The lipid mixture was resuspended in TBS buffer by vortexing. The liposomes were created by sonication. Blocked proteome chips were washed three to five times in PBS buffer, and the extra liquid on the glass surface was removed by tapping the slides vertically on a KIMWIPE™. 200 μl of liposome solution was added to the proteome chip and immediately covered by a hydrophobic plastic cover slip (GRACE BIO-LAB™, USA). After trapped air bubbles were removed, the chip was incubated in a humidity chamber at RT for one hour. To remove the cover slip, the chip was immersed into large volume of PBS buffer (50 ml), so that the slip would float away. The chip was then moved to a second PBS bath (>50 ml) and washed 3×5 min with shaking at RT. After removing extra liquid on the surface of the chip, about 100 μl of Cy3 or Cy5 conjugated streptavidin (PIERCE™, USA; 1:2000 to 1:4000 dilution) was added to the surface and covered by a hydrophobic plastic cover slip (GRACE BIO-LABS™, USA). The chip was incubated for greater than 30 min in the dark at RT. The chip was then washed as described above. To completely remove the liquid on the chip, the chip was spun to dryness at 1500-2000 rpm for 5-10 min at RT.
• 1. S. Fields, Y. Kohara, D. J. Lockhart, Proc. Natl. Acad. Sci. 96, 8825 (1999); A. Goffeau et al., Science 274, 563 (1996). • 2 P. Ross-Macdonald et al., Nature 402, 413 (1999); J. L., DeRisi, V. R. Iyer, P. O. Brown, Science 278, 680 (1997); E. A. Winzeler et al., Science 285, 901 (1999). P. Uetz et al., Nature 403, 623 (2000); T. Ito et al., Proc. Natl. Acad. Sci. USA. 97, 1143 (2000) • 3 H. Zhu, M. Snyder, Curr. Opin. Chem. Biol. 5, 40 (2001). • 4 M. R. Martzen et al., Science 286, 1153 (1999). • 5 H. Zhu et al., Nat. Genet. 26, 283 (2000). • 6 G. MacBeath, S. L. Schreiber, Science 289, 1760 (2000). • 7 A. Caveman, J. Cell Sci. 113, 3543 (2000). • 8 P. Arenkov et al., Anal. Biochem 278, 123 (2000). • 9 D. A. Mitchell, T. K. Marshall, R. J. Deschenes, Yeast 9, 715 (1993). The expression vector pEGH was created by inserting an RGS-HisX6 epitope tag between the GST gene and the polycloning site of pEG(KG). The yeast ORFs were cloned using the strategy described previously (5), except every step was done in a 96-well format. Plasmid DNAs confirmed by DNA sequencing were reintroduced into both yeast (Y258) and E. coli (DH5a). […] 0.1 mM calcium was present in buffers in all subsequent steps. The chip was washed three times with PBS at RT. Cy3-conjugated streptavidin (Jackson IR, USA) (1:5000 dilution) was added to the chip and incubated for 30 min at RT. After extensive washing, the chip was spun dry and scanned using a microarray scanner; the data was subsequently acquired with the GENEPIX™ array densitometry software (Axon, USA). • 12 S. S. Hook, A. R. Means, Annu. Rev. Pharmacol. Toxicol.41, 471 (2001). • 13 M. S. Cyert, R. Kunisawa, D. Kaim, J. Thorner, Proc. Natl. Acad. Sci. USA 88, 7376 (1991). • 14 D. A. Stirling, K. A. Welch, M. J. Stark, EMBO J. 13, 4329 (1994). • 15 F. Bohl, Kruse, EMBO J. 19, 5514 (2000); E. Bertrand et al., Mol. Cell 2, 437 (1998). • 16 D. C. Winter, E. Y. Choe, R. Li, Proc. Nat. Acad Sci. USA 96, 7288 (1999). • 17 C.

PI(3,4,5)P3 liposomes = assay: Yeast proteome chip probed with PI(3,4,5)P3 liposomes
PI(4)P liposomes = assay: Yeast proteome chip probed with PI(4)P liposomes
[1] = tested on: phosphatidylcholine (PC) liposomes; assay: Yeast proteome chip probed with PC liposomes
In short: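 Binding detected by fluorescent streptavidin (Cy3 or Cy5, >30 min in the dark at RT) recognizing biotin-DHPE (1% w/w) in PC liposomes, which carried 5% (w/w) of the named phosphoinositide unless PC-only. Liposomes, made by sonication in TBS, were applied to blocked chips for 1 h at RT, then washed in PBS.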

PI(3,4)P2 liposomes = assay: Yeast proteome chip probed with PI(3,4)P2 liposomes
PI(4,5)P2 liposomes = assay: Yeast proteome chip probed with PI(4,5)P2 liposomes

Molecule | PI(3)P (PI(3)P liposomes) | PI(3, 4, 5)P3 (PI(3,4,5)P3 liposomes) | PI(4)P (PI(4)P liposomes) | PC [1] | PI(3, 4)P2 (PI(3,4)P2 liposomes) | PI(4, 5)P2 (PI(4,5)P2 liposomes)
B1 | 3.50 | 43.65 | 65.32 | 71.02 | 86.34 | 
B2 | 1.00 | 8.55 | 16.11 | 38.15 | 21.03 | 
B3 | 51.25 |  | −1.96 | 24.36 |  | 11.54
B4 | 0.00 | 36.22 | 35.27 | 42.85 | 60.91 | 
